B1: GLUT9b: N61Q (protein)
parent chain: MKLSKKDRGEDEESDSAKKKLDWSCSLLVASLAGAFGSSFLYGYNLSVVNAPTPYIKAFYNESWERRHGRPIDPDTLTLLWSVTVSIFAIGGLVGTLIVKMIGKVLGRKHTLLANNGFAISAALLMACSLQAGAFEMLIVGRFIMGIDGGVALSVLPMYLSEISPKEIRGSLGQVTAIFICIGVFTGQLLGLPELLGKESTWPYLFGVIVVPAVVQLLSLPFLPDSPRYLLLEKHNEARAVKAFQTFLGKADVSQEVEEVLAESRVQRSIRLVSVLELLRAPYVRWQVVTVIVTMACYQLCGLNAIWFYTNSIFGKAGIPPAKIPYVTLSTGGIETLAAVFSGLVIEHLGRRPLLIGGFGLMGLFFGTLTITLTLQDHAPWVPYLSIVGILAIIASFCSGPGGIPFILTGEFFQQSQRPAAFIIAGTVNWLSNFAVGLLFPFIQKSLDTYCFLVFATICITGAIYLYFVLPETKNRTYAEISQAFSKRNKAYPPEEKIDSAVTDGKINGRP
B2: GLUT9a: N90Q (protein)
parent chain: MARKQNRNSKELGLVPLTDDTSHAGPPGPGRALLECDHLRSGVPGGRRRKDWSCSLLVASLAGAFGSSFLYGYNLSVVNAPTPYIKAFYNESWERRHGRPIDPDTLTLLWSVTVSIFAIGGLVGTLIVKMIGKVLGRKHTLLANNGFAISAALLMACSLQAGAFEMLIVGRFIMGIDGGVALSVLPMYLSEISPKEIRGSLGQVTAIFICIGVFTGQLLGLPELLGKESTWPYLFGVIVVPAVVQLLSLPFLPDSPRYLLLEKHNEARAVKAFQTFLGKADVSQEVEEVLAESRVQRSIRLVSVLELLRAPYVRWQVVTVIVTMACYQLCGLNAIWFYTNSIFGKAGIPPAKIPYVTLSTGGIETLAAVFSGLVIEHLGRRPLLIGGFGLMGLFFGTLTITLTLQDHAPWVPYLSIVGILAIIASFCSGPGGIPFILTGEFFQQSQRPAAFIIAGTVNWLSNFAVGLLFPFIQKSLDTYCFLVFATICITGAIYLYFVLPETKNRTYAEISQAFSKRNKAYPPEEKIDSAVTDGKINGRP

Tests used:
[1] = confocal immunofluorescence, HEK 293T; details: glycan lost; control: wild type GLUT9b
[2] = [14C]-urate uptake, oocytes co-expressing ITM2B; details: glycan lost
[3] = [14C]-urate uptake, oocytes co-expressing TMEM85; details: glycan lost
[4] = [14C]-urate uptake, polarized or depolarized oocytes; details: glycan lost

Row | Protein | localisation_or_trafficking [1] | other: inhibition of urate uptake by ITM2B, other: percent inhibition of uptake ([2]; control: wild type GLUT9b) | other: inhibition of urate uptake by TMEM85 ([3]; control: wild type GLUT9b) | other: transport activity ([4]; control: wild type GLUT9b) | other: inhibition of urate uptake by ITM2B, other: percent inhibition of uptake ([2]; control: wild type GLUT9a) | other: inhibition of urate uptake by TMEM85 ([3]; control: wild type GLUT9a) | other: transport activity ([4]; control: wild type GLUT9a)
1 | B1 | no change | no change, ∼65–70 vs 65–70 | no change | no change | – | – | –
2 | B2 | – | – | – | – | no change, ∼65–70 vs 65–70 | no change | no change

— article PMC6818471
